Test: soluble fraction after stress (log2 fold change); higher = more stays soluble; pooled small domains, quantitative proteomics
Settings: stress: 50 degC
How it was run: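 Pooled custom libraries of small protein domains were each held under stress at 50°C. The read-out, high-throughput quantitative proteomics, tracked how much of each protein stayed soluble. This is reported as a base-two log fold change used to indicate aggregation propensity. Higher values mean more protein remains in solution.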

Row | Sequence | soluble fraction (log2)
1 | HMFKINQKVKLIAPLPYLKTSENMPMLRPPDLVAIDEIGEVLSLKSPETVEVRFRRGSFLIDIDKLEKVD | -0.219
2 | HMRHKSNRRLTAAHQIEQQIQKLLMENTMEAKELKESLNFAAKDIDTVLSWLVDKDKVRINAINQYYWT | -0.767
3 | HMSGAERAAALLVALGPEVASEIMKFLDDESIQKLASEIAKIEVLSPQEKEDLIGQFLLELKKT | -0.214
4 | HMIIIMKMGADESQVQETIKRIKDLGFNTHLSKGENRTIIGVIGDVSSIDESDVERLRATPYIAEVVRVS | 0.0267
5 | HMALSLPDDMTIVRKDGSSLEVRLKSRTVTEIHFERISDSETFQFSIDQLDETTRELVEQYPVM | -0.0919
6 | HMVISLREINLIGVYGRPNARRALVRLSNGRYVRVEVGSDLDGGKVTAIGDEALNFVKRGRTYAIQLPA | -1.55
7 | HMDASSTGFLGKHVQIVGLVSQPHLNGRRGVASRFDSNRRRYLVRLDEIDGHAEVVAFRPDNLVLSNLL | -0.573
8 | HMLQVSDENFVVELVQKVLLDNPSSVQEYKNGKESVLQFLIGQAMKASKGTANPQIVKEIMLKLL | -0.314
9 | HMYKNAFITYDNNLYYLGSDSKMAIGWQSIGGNTYYFRNWGGMITGKQVIDGKTYVFDEDGKLVQSPD | -1.12
10 | HMNAEWMFDARKIPGLVMNYLRRIAVRAIEEKHYSPELVADLFGIDRTSIYDWLRKYRQQGEEALDTRKA | 0.012
11 | HMLQLSDAISRVESFLQGQNRNLAFSIDENTERSVVTVLDSDTGDVIRQIPSEELLVLAKRIQELQQD | 0.151
12 | HMNDPIGDMLTRIRNAQMRGKSTVSTPASKLRAWVLEVLASEGYIRGFERATTDNGQGELVISLD | -0.665
13 | HMNDREAAYEDLPDELVRVGQKVFIKSLETEGVIVQPPNKKGEVRVRSGNISTNVKRSDLGLPIEKP | 0.129
14 | HMQYRQRRGLERMELILDAATRVVAEVGYERTTTNAIATRAGISPGSLYQYFSSKEDIASALWERYAE | -0.23
15 | HMISKRFQIDEENAHKRIDIFLSHEFDSISRGIVQELIVKGEVLVNDKVTKRNYKLKTGDLVDITINL | -2.59
16 | HMRTVPEALLGRAYETAETAIVLEGLEAKRTDVFHPTIGNGTVIRLEPASGSQVSAGGVIEIFVSKGTETI | -0.305
17 | HMGPDGLFAKFREPETGKDLLITQNVFVEQVLIKGVLTRTLTDAEANTYRAPFVNPEKRFPIYVWPNELP | 0.142
18 | HMRDLLPHFQRELQFLQTHRNEFAAAYPELGGRLATASDLLDDPHVERMVQSFALLAARVHKRLDDDF | 0.206
19 | HMKLPNGYGGIAKLSGKRRNPWRVRVTKGWSVDEQTGKAKQLFSTLGYYPTRKDALAALSAYNQNP | -0.942
20 | HMGEELIEIQNLRNKERREAEAILKNLDLVPVIQEQFDDTVPINRVITTDPGPDSTVKKGTTVMIYVSKGP | 0.253
21 | HMHGSSVEIPNIYGLPASEAVQLLDKADLRYEVIDSVYTTEVPKGAVYDLSPKAGSRVKAGRIIFLTLNA | -0.756
22 | HMSYGDLTGRTVVITGASKGIGARASRVLAQAGASVVGLARSVDELTALKYDLENDGLSFDFG | ≥ 0.62
23 | HMEVALEVPELRGLSMKQATNTLMASGFEVQKVGSGTIYAQFPLPGERLRTGYAVTIRGKTRDLG | -0.258
24 | HMKTTSYAKLLRFLRTERDLSQITVAKQLGLSRASYLALEHGSRELSLSEAVKVTTLYGIRIDDLIVNH | -3.48
25 | HMDAIDPKTVTSWADLWKPEYKSSLLLTDDAREVFQMALRKLGYSGNTTDPKEIEAAYNELKKLMPNVAAF | -0.0387

Row | Sequence | soluble fraction (log2)
26 | HMQLTPAQHAILAKAIHSSDGKIEWFPDNVKGGARKKVLEGMFNRALITPDGEGWRIAAEGYDALGMPRP | -0.0604
27 | HMTNEAFITPSVLEWAIKRAGVSAESIHKKAEQWVSGKARPTFKQAVDIAKTLQIPFGYLWLKEPPKEQ | -0.551
28 | HMDDAVSHPDAGHIVTVTKVSADGTAEVMYRGASWRAKTADGSPLTAGSARIVRVDGAALVVEP | 0.052
29 | HMEQLNKNIKFDNFLESLNFINKVSEVAEEENHHPDLKFGWGYADITIFTHAIKGLSEGDFVLAAKIDVI | 0.269
30 | HMTAKRELILRVFMDSNGKLLSIDDVFMEMRKKRSHRTSKMTVKRAIDLLVDLGLLKEVLFDDDNIKYEYV | -0.0948
31 | HMSTMKIVRVKSNLKIGQEITSKDIEVVEVGAYNMPSEVMKNSEDVIGKYASAEMIKGEYVLAAKISDTP | 0.479
32 | HMQFAEIPNFSEMALQILRLQADGLSITKIAEALHMNPRTVKYHAQENYRKLQASNKSEALLAARNLNL | -1.3
33 | HMKALPSAEDVALARESGRVLSTVLQTRAETQQIDFHDDKGAVRSVTLPTTALRLLLDVLTEIGQGNAV | -0.23
34 | HMSYFNEYEVGDTIRVVNGPLADQISTITAIDKEKGLVNISTVFFGRENNVQVSINDIEKYN | 0.0466
35 | HMSEKYPPIDWNNIKTGQSVLIKDINQVVSLTKLPDSKGFAEVQMGLIKTKIKAEKLAATDKKPNK | 0.0917
36 | HMNAAYDEELDFIFSLSEKGKWEEAEAEIGLLLQKHPEDATLQRIGEWVTTQKILLRQQAVEDRIRS | -0.0763
37 | HMVKLDDLTGQDKASAEAAISNLGLKYSEQQEYSDEIEEGKVTRTDPGAGSTSLKAGDTVTVYISRGPE | 0.21
38 | HMKRITKKELKQAIVDVFADKPGQSFNYKQLATIIGIKDDPTRRMITDILYELVQEERIVELYRGKFKMEM | -0.66
39 | HMFEDEPSEREIRISTLLAAFLKQEDGGTAVSRERFLKENSDVAEDLQILLEMADMIQEMAGP | -0.418
40 | HMRPILTLEEAKAKALAHAGLKADQVTFTEAKLDWDDGKQVYDIEFYTADFKEYDYEIDAKTGEVLEVDY | -0.452
41 | HMNNIYFSPVVEENNKGLRLDKFLAASFPEFSRSQLQRLILEGNVSNDDVVIADNSQKVRVGDSFQVIVPE | -0.0377
42 | HMDIPDIGHNVRIEVDGHNGKTTHEGIILHPAAPNHITIKLANGYNASYKLEEIINIEILGELGDDSKI | -0.0692
43 | HMDTKLFNYGVGKHAYISWNEGGKRTAYIGFGNDGADVLTINNVKQGGSLGIYKDKITLNSQTVLTD | -0.0296
44 | HMAIRPDAAVSSHAVKQRLQSLIRAEDPAAPLSDEALRLALSALGIGVSRRAVAKYRAEMGIPSSSQRKK | -0.0632
45 | HMDAPHPSVVQVYFESRDRSWTYYNDRFDLHEGDLVYVEGKLEGVRGRVVEVSYNFRIKLADYKRVIAVA | -3.66
46 | HMAVKPIDRLRSLMAESNVTDAELQKVVADKGHYAADAPIDSYSEKFISGWLIKYWSQILNLINADRTVL | -0.0363
47 | HMTISIAEQIFEQLEREILSGAYPRGELLTETKLSEKLGVSRTPIREALRRLDQEHIIKMTTKGAFVLGI | -2.04
48 | HMDIADKLTKREFEIFIAIAMNKSRFDIANELGLSAKTVSNGLTVIKRKLNAVPSQFSAIAAKHGYIG | -2.66
49 | HMREIRIIAEEGHGRLDAFLAGREELGLSRSRIKGLIEEGQVTLNGAVPKAKQPVSPGDEIVVSVPD | 0.141
50 | HMQINDSSVVQKAVNDVIDQNSKAVSDYWDGKEGAAKFLMGQVMKLTRGQANPDLANQLILTRLQQERV | 0.264

Row | Sequence | soluble fraction (log2)
51 | HMGTGTYQVWSANGLGVRMRSGPGTGYRILAVYSVGTSVTVLQKGAYWSYIRVGSRTGYMMNQFLVSG | 0.139
52 | HMGTRHPLPYAFAKAHTVLLEDDGDRLLLHAAENSGPSALGEILRLYDVDALERETASTLANRIAVAYAG | 0.00932
53 | HMGGTAGKINAIGVNFRTGPSTSYTSLGLLGKDTAVTVIGTSGKWYKVTIVSTGKTGYVYATYVNLTP | -1.81
54 | HMGQPRPLTAEDFDFLSDDEIAEMRKALSNGEMLRLRELIAQIGEKRPFLAERLLVLAKQYNYEDLSRLLE | -0.374
55 | HMNIDKLVGSTGTVVRSVTPDTAGLVRVNDEDWRASAEEILYERDAIVVEGIEGVTLIVSKLS | -0.43
56 | HMTDEEKENLREKMLEAGFPLLKQYGMTHTSVAKITQAAGIAVGTFYSFWKNKEAYMADLIGYHRR | -0.818
57 | HMGRRDLSWQPAAGGVSIDGLKAGEAWTLFGLNGRILKQGYAPEGQMSLAVNAGLFVLRGAESGVIRIAVA | -1.25
58 | HMSTIAAMADPRAWALEMLGFPPGTVKPSKREIQVRFRESLRDVHPDHGGDSRTASASINDLSEARRVLLS | -0.188
59 | HMDEGQEHYVKETDLPFYSEADPASSVIFPLVLNQKLIEKERKDDWIRALEPTTGLVGWVLLKSLSPQQLS | 0.124
60 | HMKKALTAEQEARVRELYFRGINYYSANRYQDAIAEWRKVLAIDPNHEKAKNNIRQTLILLK | -0.257
61 | HMEEPEYELLRQAVLALPEKYRLPIHLYYYEEYSVREIAEILQRKESAVQTQLQRGREKIRRSLTEKGVS | -0.77
62 | HMIQRLNVNTEVLSTYIRNSNTPIEYLRQKLPNIDKFLKGELEPTFNQVYALSKLINIPTGLLLLKEPIS | -0.995
63 | HMKLSIEDLAAELIRKIEAGDIGNEQGKMPSERELLAIYPVSRYTLRQALNKLSKMGWIYQMQGRGSYIRF | -1.35
64 | HMVENATPEEREALNDIAMEAMGMVKDGKPTSAREFVQSQNLDNDQKILLWSLLDAPTRSALKTAEK | -0.133
65 | HMAVNDPDEKFIELGIPADWVQVVRKAGFQTVEALKTVENPNKLHQELSGLNKKMKLGLKTLSQDEVKDWF | 0.215
66 | HMGGSDIYLGAFNIPQGSVRVTSGGQALTEGKDFTIDYNLGSVKIINQAILNSGIPVSVSYENNAG | 0.123
67 | HMTKPAEVRIDELMNAAQTLFLAKGVEATTISEIIASVGVAKGTFYHYFESKQHIVEALKKRYID | -1.49
68 | HMYVYEPGEFAVRGSILDVYSYASEFPYRIDFFGDDVESIRTFEVQTQLSKEAKDRVSIVPDTEQ | -0.181
69 | HMEPSQEFSLADMVAYDLTGYPKSAALRAAVGASLGIGYGNAKQFVYRLNHYGISKDDFHRAAQEALDGL | -0.87
70 | HMGNNKLVLSLAVALKNTPNFLKNYNYKISKDKKFIEILLSKQINEVSDIIINLKKNNINIVDLNIKKR | -1.51
71 | HMGTAGLSPWHKIAVLMIALGPEGASELMRHFGEDEVEQVVQAIADLKNVPSELQDAVLLEMEGALQEG | -0.00851
72 | HMTEGDRLARRILRLVRNKPNGYPEVELMKATVLDWNHFQRSISSLEMAGILERRDPGDGTPPVWVEKR | -0.688
73 | HMDTINEYERNILSLITSKPGISAVQIAADTDKSIITAKRGIKTLVDGKLIEYRGSKKTGGYFLLTQS | -0.371
74 | HMAKRKTEKTSVLEEIDGVGKARARALLARFGGLSGVKAASPEELRTVRGITPEIAENIRRYFQ | 0.121
75 | HMEVEADEFQQLLRSGEYVQALDRARANQDIGLRQQQIVQIARHQAASGIQAGAMGSLASLYQF | 0.0182
